# B1: Arabinogalactan endo-beta-1,4-galactanase wild type, P48842 (protein)
# chain: MFASLLLAALPLLTHAALTYRGADISSLLLLEDEGYSYKNLNGQTQALETILADAGINSIRQRVWVNPSDGSYDLDYNLELAKRVKAAGMSLYLDLHLSDTWADPSDQTTPSGWSTTDLGTLKWQLYNYTLEVCNTFAENDIDIEIISIGNEIRAGLLWPLGETSSYSNIGALLHSGAWGVKDSNLATTPKIMIHLDDGWSWDQQNYFYETVLATGELLSTDFDYFGVSYYPFYSASATLASLKTSLANLQSTYDKPVVVVETNWPVSCPNPAYAFPSDLSSIPFSVAGQQEFLEKLAAVVEATTDGLGVYYWEPAWIGNAGLGSSCADNLMVDYTTDEVYESIETLGEL
# Details: Aspergillus aculeatus; pH 4.5; Thermal; DSC; sodium acetate buffer 50 mM; transition: 2; reversible: no; whole UniProt chain shown
protein,measurement,value
B1,Tm,60.9 °C

# — FireProtDB (doi:10.1016/j.csbj.2015.03.010)
